The values below come from US20180319883A1 (Stanford University, published 2018).

Test [1] deals with T1, human SIRPα, endogenous, on THP-1 cells (human, UniProt P78324 31-504).
T1 construct: whole, on cells; also called SIRP-alpha
In words: flow cytometry competition on THP-1 cells against CD47 tetramers. Background: Flow cytometry measures light scatter and fluorescence of single cells or particles in a stream.

Test [2] concerns the target T1, human SIRPα, endogenous, on THP-1 cells. In words: flow cytometry competition on THP-1 cells against 100 nM fluorescent CD47/streptavidin tetramers.

B1: KWAR23 scFv LH (N-terminal light chain), monomer expressed in E. coli (scFv)
scFv: QIVLTQSPAIMSASPGEKVTLTCSASSSVSSSYLYWYQQKPGSSPKLWIYSTSNLASGVPARFSGSGSGTSYSLTISSMEAEDAASYFCHQWSSYPRTFGAGTKLELKGTTAASGSSGGSSSGAEVQLQQSGAELVKPGASVKLSCTASGFNIKDYYIHWVQQRTEQGLEWIGRIDPEDGETKYAPKFQDKATITADTSSNTAYLHLSSLTSEDTAVYYCARWGAYWGQGTLVTVS
notes: also called LH scFv; LH monomer
Broadly, the IC50 is the concentration that gives 50% inhibition. A low value points to higher potency. With B1, the IC50 in test [1] is around 35 nM.

B2: KWAR23, monoclonal CD47-blocking anti-human SIRPα antibody (purified from hybridoma supernatant) (antibody, V domains shown)
VH: EVQLQQSGAELVKPGASVKLSCTASGFNIKDYYIHWVQQRTEQGLEWIGRIDPEDGETKYAPKFQDKATITADTSSNTAYLHLSSLTSEDTAVYYCARWGAYWGQGTLVTVSS
VL: QIVLTQSPAIMSASPGEKVTLTCSASSSVSSSYLYWYQQKPGSSPKLWIYSTSNLASGVPARFSGSGSGTSYSLTISSMEAEDAASYFCHQWSSYPRTFGAGTKLELK
notes: Mouse hybridoma antibody purified by protein G chromatography; also called KWAR23 antibody; intact KWAR23
The molecule B2 displayed an IC50 in test [2] of around 0.27 nM.

B3: KWAR23 scFv HL (N-terminal heavy chain), monomer expressed in E. coli (scFv)
scFv: EVQLQQSGAELVKPGASVKLSCTASGFNIKDYYIHWVQQRTEQGLEWIGRIDPEDGETKYAPKFQDKATITADTSSNTAYLHLSSLTSEDTAVYYCARWGAYWGQGTLVTVSGGGGSGGGGSGGGGSQIVLTQSPAIMSASPGEKVTLTCSASSSVSSSYLYWYQQKPGSSPKLWIYSTSNLASGVPARFSGSGSGTSYSLTISSMEAEDAASYFCHQWSSYPRTFGAGTKLELK
notes: also called HL scFv; HL monomer
In test [1], B3 gave an IC50 of around 35 nM.
